The record followed here is publication PMC3393671, “A Toxoplasma gondii Pseudokinase Inhibits Host IRG Resistance Proteins” (PLoS Biology, 2012).

The target of the test is T1, Irga6 (GST tag cleaved off) (mouse, UniProt Q9QZ85 1-411).
T1 construct: Irga6, mouse IRG protein, cleaved from the GST fusion as a near-native protein; Lacks the N-terminal myristoylation; In one NMR experiment [13C]-Met labelled; also called wt Irga6; purified Irga6; source: E. coli BL21 (pGEX-4T-2), purified (Glutathione Sepharose, thrombin cleavage, Superdex 75); not shown: GST, N-terminal, cleaved
T1 sequence: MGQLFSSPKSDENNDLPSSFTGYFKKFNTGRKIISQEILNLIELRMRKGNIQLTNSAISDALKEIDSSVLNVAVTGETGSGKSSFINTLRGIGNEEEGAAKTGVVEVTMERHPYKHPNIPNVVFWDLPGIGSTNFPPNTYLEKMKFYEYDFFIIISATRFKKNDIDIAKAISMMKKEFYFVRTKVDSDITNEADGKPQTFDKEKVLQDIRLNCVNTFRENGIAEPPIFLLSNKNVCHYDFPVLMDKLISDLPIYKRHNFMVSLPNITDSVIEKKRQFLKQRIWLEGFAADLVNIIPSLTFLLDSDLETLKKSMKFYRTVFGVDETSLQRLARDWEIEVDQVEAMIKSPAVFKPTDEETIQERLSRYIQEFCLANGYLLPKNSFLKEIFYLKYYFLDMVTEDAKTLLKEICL
Kind of test: NMR titration; 13C-1H HSQC of [13C]-Met labelled ROP5BI without or with unlabeled Irga6; 30°C, 800 MHz. As to conditions: both partners purified.

B1: ROP5BI pseudokinase domain (domain or fragment, Toxoplasma gondii (type I))
chain: EAGDSFMRDLLKREEELIGYCREEALKEPAAMVEAVTATVWPQNAETTVDSLLSQGERKLKLVEPLRVGDRSVVFLVRDVERLEDFALKVFTMGAENSRSELERLHEATFAAARLLGESPEEARDRRRLLLPSDAVAVQSQPPFAQLSPGQDDYAVANYLLLMPAASVDLELLFSTLDFVYVFRGDEGILALHILTAQLIRLAANLQSKGLVHGHFTPDNLFIMPDGRLMLGDVSALWKVGTRGPASSVPVTYAPREFLNASTATFTHALNAWQLGLSIYRVWCLFLPFGLVTPGIKGSWKRPSLRVPGTDSLAFGSCTPLPDFVKTLIGRFLNFDRRRRLLPLEAMETPEFLQLQNEISSSLSTGQ
notes: pseudokinase domain of ROP5 isoform B of a type I T. gondii strain (ROP5BI); In one NMR experiment [13C]-labelled on the Cε of methionines; also called purified pseudokinase domain protein ROP5BI; source: purified
As to B1, the binding result is “binds”.
